Assay results as given in patent publication US20160159928A1 (published 2016).
Substitutions are numbered along the chain they refer to. Names and notes keep the numbering of the source.

How the values were obtained:
CXCR1 [1] = molecular target: T1, CXCR1 (UniProt P25024 1-350, limits assumed); experiment: flow cytometry; fluorescence on CXCR1-U2OS over parental U2OS cells
T1 construct: whole, on cells; also called CXCR1 receptor; CXCR1-U2OS
T1 sequence (looked up): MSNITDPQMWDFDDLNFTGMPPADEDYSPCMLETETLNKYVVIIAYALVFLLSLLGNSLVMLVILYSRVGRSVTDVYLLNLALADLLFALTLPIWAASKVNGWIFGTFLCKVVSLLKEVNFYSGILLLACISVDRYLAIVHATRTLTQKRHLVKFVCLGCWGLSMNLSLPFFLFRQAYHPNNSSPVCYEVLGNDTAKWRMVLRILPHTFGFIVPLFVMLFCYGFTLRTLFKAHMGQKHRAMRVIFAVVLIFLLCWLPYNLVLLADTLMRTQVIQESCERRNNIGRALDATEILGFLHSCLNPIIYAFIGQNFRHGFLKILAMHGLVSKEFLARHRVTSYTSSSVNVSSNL
Protocol: (§1) Briefly, a cell line expressing functionally validated CXCR1 derived from U2OS cells was obtained from DiscoveRx and cultured per manufacturer's instructions (Cat#93-0226C3, DiscoveRx Corporation, Freemont, Calif.). The parental cell line U2OS was obtained from ATCC and cultured under the same conditions as the CXCR1 cells. Cell culture supernatants were then tested for binding to cells by flow cytometry. The adherent U2OS or CXCR1-U2OS cells were dissociated with Accutase (Innovative Cell Technologies, Inc., San Diego, Calif.), neutralized with an equal volume of media containing 10% serum, centrifuged at 1000 g, and resuspended in PBS with 2% BSA. Next, cells were dispensed into microtiter plates to achieve between 30,000 to 300,000 cells per well, centrifuged again, and resuspended in cell culture supernatant containing expressed IgG, or a dilution of IgG-containing cell culture supernatant. A fluorescent-conjugated anti-Human Fc antibody was used to detect binding of the expressed antibody to cells.

CXCR1 [2] = molecular target: T1, CXCR1; experiment: flow cytometry, IgG supernatant, fluorescent anti-human Fc; parental U2OS: 5
Protocol: as §1

CXCR1 [3] = molecular target: T1, CXCR1; experiment: flow cytometry; secreted IgG, CXCR1-U2OS over parental U2OS cells
CXCR1 [4] = molecular target: T1, CXCR1; experiment: flow cytometry; fluorescence on CXCR1-U2OS over parental U2OS cells; remark: listed apart in the source
Protocol: as §1

CXCR1 [5] = molecular target: T1, CXCR1; experiment: flow cytometry, IgG 10 nM, 2% BSA in PBS plus 2 ug/ml heparin sulfate
Protocol: Transfections and ELISA were carried out as described above, and flow cytometry was used to evaluate CXCR1 binding specificity as previously described, with the modification that cells were resuspended in 2% BSA in PBS plus 2 ug/ml Heparin sulfate, and IgGs were normalized to 10 nM during incubation on cells.

CXCR1 [6] = molecular target: T1, CXCR1; experiment: flow cytometry; CXCR1-U2OS over parental U2OS cells

B1: VH1-24+CDR3-IL8 IgG (antibody)
VH: QVQLVQSGAEVKKPGASVKVSCKVSGYTLTELSMHWVRQAPGKGLEWMGGFDPEDGETIYAQKFQGRVTMTEDTSTDTAYMELSSLRSEDTAVYYCTSVHQETKKYQSPRSAKELRCQCIKTYSKPFHPKFIKELRVIESGPHCANTEIIVKLSDGRELCLDPKENWVQRVVEKFLKRAENSGSGSYTYNYEWHVDVWGQGLLVTVSSAS
light: not shown
notes: also called VH1-24 BLVCDR3IL8
Ratio of CXCR1/Parental (CXCR1 [1]): 4.3 | fluorescence on CXCR1-U2OS cells (CXCR1 [2]): 23

B2: VH1-46+CDR3-IL8 IgG (antibody)
VH: QVQLVQSGAEVKKPGASVKVSCKASGYTFTSYYMHWVRQAPGQGLEWMGIINPSGGSTSYAQKFQGRVTMTRDTSTSTVYMELSSLRSEDTAVYYCTSVHQETKKYQSPRSAKELRCQCIKTYSKPFHPKFIKELRVIESGPHCANTEIIVKLSDGRELCLDPKENWVQRVVEKFLKRAENSGSGSYTYNYEWHVDVWGQGLLVTVSSAS
light: not shown
notes: also called VH1-46 BLVCDR3IL8
Ratio of CXCR1/Parental (CXCR1 [1]): 1.1 | fluorescence on CXCR1-U2OS cells (CXCR1 [2]): 6

B3: VH1-69+CDR3-IL8 IgG (antibody)
VH: QVQLVQSGAEVKKPGSSVKVSCKASGGTFSSYAISWVRQAPGQGLEWMGGIIPIFGTANYAQKFQGRVTITADKSTSTAYMELSSLRSEDTAVYYCTSVHQETKKYQSPRSAKELRCQCIKTYSKPFHPKFIKELRVIESGPHCANTEIIVKLSDGRELCLDPKENWVQRVVEKFLKRAENSGSGSYTYNYEWHVDVWGQGLLVTVSSAS
light: not shown
notes: also called VH1-69 BLVCDR3IL8
Ratio of CXCR1/Parental (CXCR1 [1]): 4

B4: VH3-23+CDR3-IL8 IgG (antibody)
VH: EVQLLESGGGLVQPGGSLRLSCAASGFTFSSYAMSWVRQAPGKGLEWVSAISGSGGSTYYADSVKGRFTISRDNSKNTLYLQMNSLRAEDTAVYYCTSVHQETKKYQSPRSAKELRCQCIKTYSKPFHPKFIKELRVIESGPHCANTEIIVKLSDGRELCLDPKENWVQRVVEKFLKRAENSGSGSYTYNYEWHVDVWGQGLLVTVSSAS
light: not shown
notes: also called VH3-23 BLVCDR3IL8
Ratio of CXCR1/Parental (CXCR1 [1]): 2.7

B5: BLV1H12+CDR3-IL8 heavy chain with BLV1H12 light chain (SEQ ID NO: 412) (antibody, human IgG1)
heavy: not shown
light: QAVLNQPSSVSGSLGQRVSITCSGSSSNVGNGYVSWYQLIPGSAPRTLIYGDTSRASGVPDRFSGSRSGNTATLTISSLQAEDEADYFCASAEDSSSNAVFGSGTTLTVLGQPKSPPSVTLFPPSTEELNGNKATLVCLISDFYPGSVTVVWKADGSTITRNVETTRASKQSNSKYAASSYLSLTSSDWKSKGSYSCEVTHEGSTVTKTVKPSECS
FACS CXCR1/Parental Ratio (CXCR1 [3]): 5

B6: VH4-4+CDR3-IL8 IgG (antibody)
VH: QVQLQESGPGLVKPSETLSLTCTVSGGSISSYYWSWIRQPAGKGLEWIGRIYTSGSTNYNPSLKSRVTMSVDTSKNQFSLKLSSVTAADTAVYYCTSVHQETKKYQSPRSAKELRCQCIKTYSKPFHPKFIKELRVIESGPHCANTEIIVKLSDGRELCLDPKENWVQRVVEKFLKRAENSGSGSYTYNYEWHVDVWGQGLLVTVSSAS
light: not shown
notes: also called VH4-4 BLVCDR3IL8
Ratio of CXCR1/Parental (CXCR1 [1]): 3.1

B7: VH4-34+CDR3-IL8 IgG (BLV1H12 light chain) (antibody)
VH: QVQLQQWGAGLLKPSETLSLTCAVYGGSFSGYYWSWIRQPPGKGLEWIGEINHSGSTNYNPSLKSRVTISVDTSKNQFSLKLSSVTAADTAVYYCTSVHQETKKYQSPRSAKELRCQCIKTYSKPFHPKFIKELRVIESGPHCANTEIIVKLSDGRELCLDPKENWVQRVVEKFLKRAENSGSGSYTYNYEWHVDVWGQGLLVTVSSAS
light: not shown
notes: also called VH4-34 BLVCDR3IL8
Ratio of CXCR1/Parental (CXCR1 [1]): 9.3 | FACS CXCR1/Parental Ratio (CXCR1 [4]): 9.3

B8: VH4-34+CDR3-IL8_CDR1 Cow with light chain V1-51 CDR2 DNN to GDT (antibody)
VH: B7 VH with A23T, V24A, Y25S, G27F, F29L, G31D, Y32K, Y33A, W34V, S35G
light: QSVLTQPPSVSAAPGQKVTISCSGSSSNIGNNYVSWYQQLPGTAPKLLIYGDTKRPSGIPDRFSGSKSGTSATLGITGLQTGDEADYYCASAEDSSSNAVFGSGTTLTVLGQPKAAPSVTLFPPSSEELQANKATLVCLISDFYPGAVTVAWKADSSPVKAGVETTTPSKQSNNKYAASSYLSLTPEQWKSHRSYSCQVTHEGSTVEKTVAPTECS
CXCR1 specificity (CXCR1/parental ratio) (CXCR1 [5]): 5.6

B9: VH4-34+CDR3-IL8_CDR1 Cow IgG (BLV1H12 light chain) (antibody)
VH: B7 VH with A23T, V24A, Y25S, G27F, F29L, G31D, Y32K, Y33A, W34V, S35G
light: not shown
notes: also called VH4-34 + CDR3-IL8 + Cow CDR1
FACS CXCR1/Parental Ratio (CXCR1 [4]): 2.1

B10: VH4-34+CDR3-IL8_CDR1 Cow_CDR2 Cow with light chain V1-51 CDR2 DNN to GDT (antibody)
VH: QVQLQQWGAGLLKPSETLSLTCTASGFSLSDKAVGWIRQPPGKGLEWLGSIDTGGNTGYNPSLKSRVTISVDTSKNQFSLKLSSVTAADTAVYYCTSVHQETKKYQSPRSAKELRCQCIKTYSKPFHPKFIKELRVIESGPHCANTEIIVKLSDGRELCLDPKENWVQRVVEKFLKRAENSGSGSYTYNYEWHVDVWGQGLLVTVSSAS
light: B8 light
CXCR1 specificity (CXCR1/parental ratio) (CXCR1 [5]): 16.7

B11: VH4-34+CDR3-IL8_CDR2 E50S IgG (BLV1H12 light chain) (antibody)
VH: B7 VH with E50S
light: not shown
notes: also called VH4-34 + CDR3-IL8 + E50S
FACS CXCR1/Parental Ratio (CXCR1 [4]): 4

B12: VH4-34+CDR3-IL8_CDR1 Cow_CDR2 Cow with light chain V1-51 CDR1 I29V, N32G (antibody)
VH: B10 VH
light: B8 light with I29V, N32G, G51D, D52N, T53N
CXCR1 specificity (CXCR1/parental ratio) (CXCR1 [5]): 11.8

B13: VH4-34+CDR3-IL8_CDR1 Cow with light chain V1-51 S2A, T5N, P8S, A12G, A13S, P14L (antibody)
VH: B10 VH with L48I, S50E, D52N, T53H, G54S, N56S, G58N
light: B8 light with S2A, T5N, P8S, A12G, A13S, P14L, G51D, D52N, T53N
notes: also called BID 34
CXCR1 specificity (CXCR1/parental ratio) (CXCR1 [5]): 4.7

B14: VH4-34+CDR3-IL8_CDR1 G31D, Y32K IgG (BLV1H12 light chain) (antibody)
VH: B7 VH with G31D, Y32K
light: not shown
notes: also called VH4-34 + CDR3-IL8 + E31D, Y32K
FACS CXCR1/Parental Ratio (CXCR1 [4]): 8.1

B15: VH4-34+CDR3-IL8_CDR1 Cow_CDR2 Cow with light chain V1-51 CDR2 DNNKRP to GDTSRA (antibody)
VH: B10 VH
light: B8 light with K54S, P56A
CXCR1 specificity (CXCR1/parental ratio) (CXCR1 [5]): 6.9

B16: VH4-34+CDR3-IL8_CDR1 Cow with light chain V1-51 CDR1 I29V, N32G (antibody)
VH: B10 VH with L48I, S50E, D52N, T53H, G54S, N56S, G58N
light: B8 light with I29V, N32G, G51D, D52N, T53N
CXCR1 specificity (CXCR1/parental ratio) (CXCR1 [5]): 8.9

B17: VH4-34+CDR3-IL8_CDR1 Cow with light chain V1-51 S2A, T5N, P8S, A12G, A13S, P14L & DNN to GDT (antibody)
VH: B10 VH with L48I, S50E, D52N, T53H, G54S, N56S, G58N
light: B8 light with S2A, T5N, P8S, A12G, A13S, P14L
CXCR1 specificity (CXCR1/parental ratio) (CXCR1 [5]): 6.8

B18: VH4-34+CDR3-IL8_CDR1 Cow with light chain V1-51 CDR2 DNNKRP to GDTSRA (antibody)
VH: B10 VH with L48I, S50E, D52N, T53H, G54S, N56S, G58N
light: B8 light with K54S, P56A
CXCR1 specificity (CXCR1/parental ratio) (CXCR1 [5]): 8

B19: VH4-34+CDR3-IL8_CDR2 Cow IgG (BLV1H12 light chain) (antibody)
VH: B7 VH with I48L, E50S, N52D, H53T, S54G, S56N, N58G
light: not shown
notes: also called VH4-34 + CDR3-IL8 + Cow CDR2
FACS CXCR1/Parental Ratio (CXCR1 [4]): 8

B20: BLV1H12 IgG (antibody)
VH: QVQLRESGPSLVKPSQTLSLTCTASGFSLSDKAVGWVRQAPGKALEWLGSIDTGGNTGYNPGLKSRLSITKDNSKSQVSLSVSSVTTEDSATYYCTSVHQETKKYQSCPDGYRERSDCSNRPACGTSDCCRVSVFGNCLTTLPVSYSYTYNYEWHVDVWGQGLLVTVSSAS
light: not shown
notes: also called ULcowV
Ratio of CXCR1/Parental (CXCR1 [1]): 1.9 | FACS CXCR1/Parental Ratio (CXCR1 [4]): 1.9 | fluorescence on CXCR1-U2OS cells (CXCR1 [2]): 9

B21: VH4-34+CDR3-IL8_CDR1 Cow with light chain V1-51 (antibody, human IgG1, lambda)
heavy: not shown
light: B8 light with G51D, D52N, T53N
CXCR1 specificity (CXCR1/parental ratio) (CXCR1 [5]): 7.2 | CXCR1/Parental Ratio (CXCR1 [6]): 2.4

B22: VH4-34+CDR3-IL8_CDR1 Cow_CDR2 Cow with light chain V1-51 S2A, T5N, P8S, A12G, A13S, P14L (antibody)
VH: B10 VH
light: B8 light with S2A, T5N, P8S, A12G, A13S, P14L, G51D, D52N, T53N
notes: also called BID 36; VH4-34 MutB IL-8 CDR1cow CDR2cow
CXCR1 specificity (CXCR1/parental ratio) (CXCR1 [5]): 12.2

B23: VH4-34+CDR3-IL8_CDR1 Cow_CDR2 Cow with light chain V1-51 (antibody, human IgG1, lambda)
heavy: not shown
light: B8 light with G51D, D52N, T53N
notes: also called BID 35
CXCR1 specificity (CXCR1/parental ratio) (CXCR1 [5]): 11.1 | CXCR1/Parental Ratio (CXCR1 [6]): 3.1
